Measured values from patent US20060228334A1.

Each substance was assayed against coxsackievirus-adenovirus receptor (CAR) on 293 cells (human) (UniProt P78310) (assay: cell-based or functional assay).
Chain of UniProt P78310 (P78310 20-365): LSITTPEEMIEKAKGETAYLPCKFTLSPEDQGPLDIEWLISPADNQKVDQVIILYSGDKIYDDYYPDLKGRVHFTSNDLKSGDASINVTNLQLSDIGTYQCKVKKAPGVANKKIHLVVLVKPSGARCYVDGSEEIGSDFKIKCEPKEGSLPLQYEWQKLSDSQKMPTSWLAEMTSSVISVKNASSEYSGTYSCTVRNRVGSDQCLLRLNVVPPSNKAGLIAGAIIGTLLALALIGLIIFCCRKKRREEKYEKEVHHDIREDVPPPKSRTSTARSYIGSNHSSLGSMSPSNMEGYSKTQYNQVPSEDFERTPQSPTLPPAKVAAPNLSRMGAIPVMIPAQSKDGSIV

Row | Substance | IU/Particle (infectious units titrated on 293 cells per particle) [IU/Particle] | inhibition of infection of 293 cells by 10 ug/ml recombinant Ad5 knob (FIG. 2) [%]
1 | Ad5 fiber Ser408Glu (virus Ad-LacZ/Fb-S408E) (from UniProt P11818 1-581) | 9.54e-05 | 
2 | Ad5 fiber Ser408Glu and Val452Lys (virus Ad-LacZ/Fb-S408E/V452K) (from UniProt P11818 1-581) | 9.57e-05 | 
3 | Ad5 fiber Ala406Lys (virus Ad-LacZ/Fb-Ala406Lys) (from UniProt P11818 1-581) | 0.000125 | 
4 | Ad5 fiber Ser408Glu and Ser555Lys (virus Ad-LacZ/Fb-S408E/S555K) (from UniProt P11818 1-581) | 6.38e-05 | 
5 | Ad5 fiber Val452Lys (virus Ad-LacZ/Fb-Val452Lys) (from UniProt P11818 1-581) | 0.002 | 
6 | Ad5 fiber Lys506Gln/His508Lys (virus Ad-LacZ/Fb-Lys506Q/His508Lys) (from UniProt P11818 1-581) | 0.000769 | 
7 | wild-type Ad5 fiber protein (as carried by the Ad-LacZ virus) (from UniProt P11818 1-581) | 0.025 | 90
8 | Ad5 fiber Ser555Lys (virus Ad-LacZ/Fb-Ser555Lys) (from UniProt P11818 1-581) | 0.025 | 
9 | Ad5 fiber Thr404Gly (virus Ad-LacZ/Fb-Thr404gly) (from UniProt P11818 1-581) | 8.33e-05 | 
10 | Ad5 fiber Ser408Glu and Lys506Gln/His508Lys (virus Ad-LacZ/Fb-S408E/K506Q/H508K) (from UniProt P11818 1-581) | 0.00025 | 
